Measured values published in paper PMC8997467.

Columns and labels:
Conditions in all cases: glycan lost; control: wild type
[1] = cell surface biotinylation, streptavidin pulldown, HeLa
[2] = anti-FLAG surface immunofluorescence, non-permeabilised HeLa
[3] = co-immunostaining with ER marker HA-PDIA4

Row | Substance | localisation_or_trafficking, percent_of_wt [1] | localisation_or_trafficking, percent_of_wt [2] | localisation_or_trafficking [3]
1 | Neuronal growth regulator 1 (NEGR1): 1MT (N307Q) | no change | – | –
2 | Neuronal growth regulator 1 (NEGR1): N73Q | – | no change | –
3 | Neuronal growth regulator 1 (NEGR1): N73Q/N155Q | abolishes | abolishes | changes
4 | Neuronal growth regulator 1 (NEGR1): N155Q | – | no change | –
5 | Neuronal growth regulator 1 (NEGR1): N275Q | – | no change | –
6 | Neuronal growth regulator 1 (NEGR1): N286Q | – | no change | –
7 | Neuronal growth regulator 1 (NEGR1): N294Q | – | no change | –
8 | Neuronal growth regulator 1 (NEGR1): N307Q | – | no change | –
